Measured values: patent publication US20190248900A1 (Y BIOLOGICS, published 2019)

B1: PD1-72D10 (antibody, V domains shown)
VH: QVQLVESGGGVVQPGRSLRLSCAASGFTFSSYAMHWVRQAPGKGLEWVAVISYDGSNKYYADSVKGRFTISRDNSKNTLYLQMNSLRAEDTAVYYCTTTTFDSWGQGTLVTVSS
VL: DIVMTQTPLSLPVTPGEAASISCRSSQSLLDSEDGNTYLDWYLQKPGQSPQLLIYTLSHRASGVPDRFSGSGSGTDFTLKISRVEAEDVGIYYCMQRVEFPFTFGQGTKLEIK
B2: PD1-49A2(A/2A11) (antibody, V domains shown)
VH: QVQLVESGGGVVQPGRSLRLSCAASGFTFRSYAMHWVRQAPGKGLEWVAVISYDGQDKYYADSVKGRFTISRDNSKNTLYLQMNSLRAEDTAVYYCTTTTFDSWGQGTLVTVSS
VL: DIVMTQTPLSLPVTPGEPASISCRSSQSLFDSDDGNTYLDWYLQKPGQSPRLLIYTLSHRALGVPDRFSGSGSGTDFTLKISRVAAEDVGLYYCLQRMGFPYTFGQGTKLEIK
B3: PD1-49A2(A/1F12) (antibody, V domains shown)
VH: QVQLVESGGGVVQPGRSLRLSCAASGFTFRNYAMHWVRQAPGKGLEWVAVISYDGQHKYYADSVKGRFTISRDNSKNTLYLQMNSLRAEDTAVYYCTTTTFDSWSQGTLVTVSS
VL: DIVMTQTPHSLPVTPGEPASISCRSSQSLLDSEDGNTYLDWYLQKPGQSPQLLIYTLSHRALGVPDRFSGSGSGTDFTLKISRVEAEDSGIYYCMQRIEFPYTFGQGTKLEIK
B4: PD1-49A2(A/1H4) (antibody, V domains shown)
VH: QVQLVESGGGVVQPGRSLRLSCAASGFTFPIYAMHWVRQAPGKGLEWVAVISYDGAHKYYADSVKGRFTISRDNSKNTLYLQMNSLRAEDTAVYYCTTTTFDSWGQGTLVTVSS
VL: DIVMTQSPLSLPVTPGEAASISCRSSQSLLDSEDGNTYLDWYLQKPGQSPQLLIYTLSHRASGVPDRFSGSGSGTDFTLKISRVEAEDSGIYYCMQRVEFPYTFGQGTKLDIK
B5: PD1-45D6(A/4C1) (antibody, V domains shown)
VH: QVQLVESGGGVVQPGRSLRLSCAASGFTFSSYAMHWVRQAPGKGLEWVAVISYDGNDKYYADSVKGRFTISRDNSKNTLYLQMNSLRAEDTAVYYCVPTTFEYWGQGTLVTVSS
VL: DIVMTQTPLSLPVTPGEPASISCRSSQSLLDSDDGNTYLDWYLQKPGQSPQLLIYTLSHRASGVPDRFSGSGSGTDFTLKISRVEAEDVGIYYCMQRVEFPFTFGQGTKLDIK
B6: PD1-74A01 (antibody, V domains shown)
VH: QVQLVESGGGVVQPGRSLRLSCAASGFTFSSYAMHWVRQAPGKGLEWVAVISYDGSNKYYADSVKGRFTISRDNSKNTLYLQMNSLRSEDTAVYYCVPTTFEYWGQGSQVTVSS
VL: DIVMTQTPLSLPVTPGEPASISCRSSQSLLDRGGGHTYLDWYLQKPGQSPQLLIYTLSHRASGVPDRFSGSGSGTDFTLKISRVEAEDVGIYYCMQRKEFPLTFGPGTKLEIK
B7: PD1-74H12 (antibody, V domains shown)
VH: QVQLVESGGGVVQPGRSLRLSCAASGFTFSSYAMHWVRQAPGKGLEWVAVISYDGSNKYYADSVKGRFTISRDNSKNMLYLEMNSLRAEDTAVYYCVPTTFEYWGQGSQVTVSS
VL: DIVMTQTPLSLSVTPGEPASISCRSSQSLLDSDDGNTYLDWYLQKPGQSPQLLIYTLSHRASGVPDRFSGRGSHTDFTLTISSVEAEDVGVYYCMQRIHFPLTFGQGTRLEIK
B8: PD1-45D6(A/3G1) (antibody, V domains shown)
VH: QVQLVESGGGVVQPGRSLRLSCAASGFTFSSYAMHWVRQVPGKGLEWVAVISYDGNDKYYADSVKGRFTISRDNSKNTLYLQMNSLRAEDTAVYYCVPTTFEYWGQGSQVTVSS
VL: DIVMTQTPLSLPVTPGEPASISCRSSQSLLDSEDGNTYLDWYLQKPGQSPQLLIYTLSHRASGVPDRFSGSGSGTDFTLEISRVEAEDVGVYYCMQRVEFPFTFGQGTKLDIK
B9: PD1-45D6(A/4D4) (antibody, V domains shown)
VH: QVQLVESGGGVVQPGRSLRLSCAASGFTFSSYAMHWVRQAPGKGLEWVAVISYDGNDKYYADSVKGRFTISRDNSKNTLYLQMNSLRAEDTAVYYCVPTTFEYWGQGTLVTVSS
VL: DIVMTQTPLSLPVTPGEPASISCRSSQSLLDSEDGNTYLDWYLQKPGQSPQLLIYTLSHRASGVPDRFSGSGSGTEFNLRISRVEAEDVGIYYCMQRVEFPFTFGQGTKVDIK
B10: PD1-45D6(A/4C9) (antibody, V domains shown)
VH: QVQLVESGGGVVQPGRSLRLSCAASGFTFSSYAMHWVRQAPGKGLEWVAVISYDGNDKYYADSVKGRFTISRDNSKNTLYLQMNSLRAEDTAVYYCVPTTFEYWGQGTLVTVSS
VL: DIVMTQTPLSLPVTPGEAASISCRSSQSLLDSEDGNTYLDWYLQKPGQSPQLLIYTLSHRASGVPDRFSGSGSGTDFTLKISRVAAEDVGIYYCMQRVEFPFTFGQGTKLEIK
B11: PD1-45D6(A/5H9) (antibody, V domains shown)
VH: QVQLVESGGGVVQPGRSLRLSCAASGFTFWTYAMHWVRQAPGKGLEWVAVISYDGNDKYYADSVKGRFTISRDNSKNTLYLQMNSLRAEDTAVYYCVPTTFEYWGQGTLVTVSS
VL: DIVMTQTPLSLPVTPGEPASISCRSSQSLLDSDDGNTYLDWYLQKPGQSPQLLIYTLSHRASGVSDRFSGSGSGTDFTLEISRVEAEDVGVYYCMQRRDFPFTFGQGTKVEIK
B12: PD1-45D6(A/5A6) (antibody, V domains shown)
VH: QVQLVESGGGVVQPGRSLRLSCAASGFTFRLYAMHWVRQAPGKGLEWVAVISHDGNDKYYADSVKGRFTISRDNSKNTLYLQMNSLRAEDTAVYYCVPTTFEYWGQGTLVTVSS
VL: DIVMTQTPLSLPVTPGEPASISCRSSQSLLDSEDGNTYLDWYLQKPGQSPQLLIYTLSHRASGVPDRFSGSGSGTDFTLKISRVEAEDVGVYYCMQRIDFPYTFGQGTKLDIK
B13: PD1-75C10 (antibody, V domains shown)
VH: QVQLVESGGGVVQPGRSLRLSCAASGFTFSSYAMHWVRQAPGKGLEWVAVISYDGSNKYYADSVKGRFTISRDNSKNTLYLQMNSLRAEDTAVYYCVPTTFEYWGQGSQVTVSS
VL: DIVMTQTPLSLPVTPGEAASISCRSSQSLLDSEDGNTYLDWYLQKPGQSPQLLIYTLSHRASGVPDRFSGSGSGTDFTLKITRVEAEDVGVYYCMQRIEFPYTFGQGTKLEIK
B14: PD1-49A2(A/2B10) (antibody, V domains shown)
VH: QVQLVESGGGVVQPGRSLRLSCAASGFTFLVYAMHWVRQAPGKGLEWVAVISYDGSHKYYADSVKGRFTISRDNSKNTLYLQMNSLRAEDTAVYYCTTTTFDSWGQGTLVTVSS
VL: DIVMTQTPLSLPVTPGEPASISCRSSQSLLDSDDGNTYLDWYLQKPGQSPQLLIYTLSHRASGVPDRFSGSGSGTDFTLKISRVAAEDVGLYYCMQRVEFPFTFGQGTKLDIK
B15: PD1-45D6(A/5C8) (antibody, V domains shown)
VH: QVQLVESGGGVVQPGRSLRLSCAASGFTFMRYAMHWVRQAPGKGLEWVAVISYDGNDKYYADSVKGRFTISRDNSKNTLYLQMNSLRAEDTAVYYCVPTTFEYWGQGTLVTVSS
VL: DIVMTQSPLSLPVTPGEPASISCRSSQSLLDSEDGNTYLDWYLQKPGQSPQLLIYTLSHRASGVPDRFSGSGSGTDFTLKISRVEAEDVGVYYCMQRVEFPFTFGQGTKLDIK
B16: PD1-45D6(A/3H4) (antibody, V domains shown)
VH: QVQLVESGGGVVQPGRSLRLSCAASGFTFSSYAMHWVRQVPGKGLEWVAVISYDGNDKYYADSVKGRFTISRDNSKNTLYLQMNSLRAEDTAVYYCVPTTFEYWGQGSQVTVSS
VL: DIVMTQTPLSLPVTPGEPASISCRSSQSLFDSDDGNTYLDWYLQKPGQSPQLLIYTLSHRASGVSDRFSGSGSGTDFTLKISRVEAEDSGIYYCMQRVEFPFTFGQGTKLDIK
B17: PD1-74A11 (antibody, V domains shown)
VH: QVQLVQSGGGVVQPGRSLRLSCAASGFTFSSYAMHWVRQAPGKGLEWVAVISYDGSNKYYADSVKGRFTISRDNSKNTLYLQMNSLRAEDTAVYYCARTTFDYWGQGTLITVSS
VL: DIVMTQTPLSLPVTPGEPASISCRSSQSLFDSDDGNTYLDWYLQKPGQSPQLLIYTLSYRASGVPDRFSGSGSGTDFTLKISRVAAEDVGIYYCMQRVEFPFTFGQGTKVDIK
B18: PD1-45D6(A/3H6) (antibody, V domains shown)
VH: QVQLVESGGGVVQPGRSLRLSCAASGFTFSSYAMHWVRQVPGKGLEWVAVISYDGNDKYYADSVKGRFTISRDNSKNTLYLQMNSLRAEDTAVYYCVPTTFEYWGQGSQVTVSS
VL: DIVMTQTPLSLPVTPGEAASISCRSSQSLLDSEDGNTYLDWYLQKPGQSPQLLIYTLSHRASGVPDRFSGSGSGTDFTLKISRVEAEDVGVYYCMQRVEFPFTFGQGTKLEIK
B19: PD1-45D6(A/4H6) (antibody, V domains shown)
VH: QVQLVESGGGVVQPGRSLRLSCAASGFTFSSYAMHWVRQAPGKGLEWVAVISYDGNDKYYADSVKGRFTISRDNSKNTLYLQMNSLRAEDTAVYYCVPTTFEYWGQGTLVTVSS
VL: DIVMTQTPLSLPVTPGEPASISCRSSQSLFDSDDGNTYLDWYLQKPGQSPQLLIYTLSHRASGVPDRFSGSGSGTDFTLKISRVEAEDVGLYYCMQRVEFPFTFGQGTKLEIK
B20: PD1-45D6(A/5B12) (antibody, V domains shown)
VH: QVQLVESGGGVVQPGRSLRLSCAASGFTFSVYAMHWVRQAPGKGLEWVAVISYDGNDKYYADSVKGRFTISRDNSKNTLYLQMNSLRAEDTAVYYCVPTTFEYWGQGTLVTVSS
VL: DIVMTQTPLSLPVTPGEAASISCRSSQSLLDSEDGNTYLDWYLQKPGQSPQLLIYTLSHRASGVPDRFSGSGSGTDFTLKISRVEAEDVGIYYCMQRVEFPFTFGQGTKVEIK

Each binder was assayed against human PD-1 (NM_005018.2) over-expressed on cells (human, UniProt Q15116 25-288) (assay: cell-based or functional assay).
Sequence of human PD-1 (NM_005018.2) over-expressed on cells (Q15116 25-288): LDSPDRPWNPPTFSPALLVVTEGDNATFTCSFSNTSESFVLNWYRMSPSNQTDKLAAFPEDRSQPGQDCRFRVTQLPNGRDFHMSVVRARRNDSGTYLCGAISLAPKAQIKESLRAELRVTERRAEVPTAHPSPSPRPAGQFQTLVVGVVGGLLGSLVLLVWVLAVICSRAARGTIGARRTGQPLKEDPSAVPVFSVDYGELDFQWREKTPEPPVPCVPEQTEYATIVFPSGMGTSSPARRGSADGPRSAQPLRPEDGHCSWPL
B1 was tested, and the “EC50 [nM], PD1/PD-L1 blockade bioassay” value was 1.21 nM. For B2, the “EC50 [nM], PD1/PD-L1 blockade bioassay” value was 0.79 nM. For B3, the “EC50 [nM], PD1/PD-L1 blockade bioassay” value was 1.03 nM. In the case of B4, the “EC50 [nM], PD1/PD-L1 blockade bioassay” value is reported as 0.84 nM. B5 was tested, and the “EC50 [nM], PD1/PD-L1 blockade bioassay” value was 1.76 nM. B6 was tested, and the “EC50 [nM], PD1/PD-L1 blockade bioassay” value was 1.01 nM. For B7, the “EC50 [nM], PD1/PD-L1 blockade bioassay” value was 0.98 nM. In the case of B8, the “EC50 [nM], PD1/PD-L1 blockade bioassay” value is reported as 0.98 nM. With B9 the “EC50 [nM], PD1/PD-L1 blockade bioassay” value was 1.74 nM. B10 was tested, and the “EC50 [nM], PD1/PD-L1 blockade bioassay” value was 2.72 nM. B11 was tested, and the “EC50 [nM], PD1/PD-L1 blockade bioassay” value was 2 nM. With B12 the “EC50 [nM], PD1/PD-L1 blockade bioassay” value was 0.92 nM. In the case of B13, the “EC50 [nM], PD1/PD-L1 blockade bioassay” value is reported as 0.81 nM. B14 was tested, and the “EC50 [nM], PD1/PD-L1 blockade bioassay” value was 0.65 nM. B15 was tested, and the “EC50 [nM], PD1/PD-L1 blockade bioassay” value was 1.44 nM. With B16 the “EC50 [nM], PD1/PD-L1 blockade bioassay” value was 1.67 nM. For B17, the “EC50 [nM], PD1/PD-L1 blockade bioassay” value was 1.31 nM. For B18, the “EC50 [nM], PD1/PD-L1 blockade bioassay” value was 1.49 nM. For B19, the “EC50 [nM], PD1/PD-L1 blockade bioassay” value was 1.19 nM. With B20 the “EC50 [nM], PD1/PD-L1 blockade bioassay” value was 0.8 nM.
